B1: N-terminal EF-hand calcium-binding protein 3 (Homo sapiens), Q96P71-2 (parent)
chain: MACAGLLTVCLLRPPAPQPQPQTPRHPQLAPDPGPAGHTLFQDVFRRADKNDDGKLSFEEFQNYFADGVLSLGELQELFSGIDGHLTDNLETEKLCDYFSEHLGVYRPVLAALESLNRAVLAAMDATKLEYERASKVDQFVTRFLLRETVSQLQALQSSLEGASDTLEAQAHGWRSDAESVEAQSRLCGSRRAGRRALRSVSRSSTWSPGSSDTGRSSEAEMQWRLQVNRLQELIDQLECKAPRLEPLREEDLAKGPDLHILMAQRQVQVAEEGLQDFHRALRCYVDFTGAQSHCLHVSAQKMLDGASFTLYEFWQDEASWRRHQQSPGSKAFQRILIDHLRAPDTLTTVFFPASWWIMNNN
partner: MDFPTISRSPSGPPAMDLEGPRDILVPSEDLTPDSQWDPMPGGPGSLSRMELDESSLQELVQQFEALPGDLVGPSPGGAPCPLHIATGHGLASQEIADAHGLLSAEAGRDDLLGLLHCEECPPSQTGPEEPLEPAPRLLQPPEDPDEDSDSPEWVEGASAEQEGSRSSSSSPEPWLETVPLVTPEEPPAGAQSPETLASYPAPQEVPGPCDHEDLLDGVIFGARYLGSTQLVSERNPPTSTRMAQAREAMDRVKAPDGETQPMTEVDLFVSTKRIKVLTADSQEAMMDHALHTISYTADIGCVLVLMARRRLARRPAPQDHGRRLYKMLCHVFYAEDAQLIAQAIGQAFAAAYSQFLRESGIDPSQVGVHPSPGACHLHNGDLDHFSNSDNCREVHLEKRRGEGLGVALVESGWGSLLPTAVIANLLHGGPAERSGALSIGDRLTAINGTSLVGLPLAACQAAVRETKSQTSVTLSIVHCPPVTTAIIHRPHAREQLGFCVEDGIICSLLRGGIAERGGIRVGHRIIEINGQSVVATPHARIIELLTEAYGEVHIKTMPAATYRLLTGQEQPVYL

Variants of: B1
Settings: with apba3_human APBA3, O96018

| effect of a mutation on the interaction | Variant |
| --- | --- |
| with no effect | H324A |
